Laboratory results reported in the Immune Epitope Database (IEDB).
pKd: −log10 of the molar value.

Columns and labels:
Test in all cases: IEDB peptide-MHC binding, purified MHC/competitive/fluorescence; filed as Kd, often an IC50 or EC50 that approximates it; ≥ and ≤ were set here for values at or beyond the usual limits of such assays
Settings in all cases: source organism: Lyssavirus rabies
HLA-B*40:01 = biological target: HLA-B*40:01
HLA-A*01:01 = biological target: HLA-A*01:01
HLA-B*27:05 = biological target: HLA-B*27:05
HLA-B*14:02 = biological target: HLA-B*14:02
HLA-B*08:01 = biological target: HLA-B*08:01
HLA-A*11:01 = biological target: HLA-A*11:01
HLA-A*30:01 = biological target: HLA-A*30:01
HLA-A*66:01 = biological target: HLA-A*66:01
HLA-B*53:01 = biological target: HLA-B*53:01

Measured: pKd

YLDNVGVHI
≤ 5.30: all assays above
